Like-named read-outs stand apart in the source and are kept apart here.
Legend:
[1] = Toxicity of radioactive gold clusters (no antibody) in healthy mice; settings: tail vein; 7.8, 12.6 or 24 μg gold metal; 2 or 24 hours
Procedure: The folowing in vivo tests in mice assess both biodistribution with time and toxicity.
Various doses of gold cluster were injected into the tail vein of healthy mice: cluster containing 7.8 μg of gold metal into one group, 12.6 μg into another and 24 μg into the third. Each group consisted of 6 animals, for a total of 18 mice. Three mice from each group were sacrificed after 2 hours and the remaining 3 were terminated after 24 hours in order to determine the biodistribution in different organs as a function of time.

[2] = Biodistribution of radioactive gold clusters (no antibody) in healthy mice; assay type: in vivo
Procedure: Typically the blood had 2.8%, the spleen 0.4%, the stomach 0.4%, kidney 5.1%, bone 2.5%, gut and feces 3.3%, liver 19.3% and, carcass 13.7% of the injected amount after 24 hours. These numbers are % counts per organ normalized to 25 gm mice.

[3] = as above; assay type: in vivo; settings: after 2 hours, tail vein
[4] = test system: human colon carcinoma cells (LS180)
Procedure: (§3) The 17-1A Fab' fragment-(radioactive gold)-undecagold cluster conjugate was incubated in vitro with tumor cells (LS180- a cell culture of human colon carcinoma) and non tumor cells (WM164 - a cell culture of melanoma as control) and the radioactivity of the gold was used to assay binding.
(§4) bound to cells after incubation and washing.
(§5) entry is an average (+ s.d.) of 2 samples.

melanoma cells (WM164) [5] = test system: melanoma cells (WM164)
Procedure: as §3, §4, §5

[6] = Thermal stability of gold clusters; assay type: physicochemical; settings: 100° C.
[7] = Stability of photocrosslinked Au13 cluster to KCN (optical density at 346 and 420 nm); assay type: physicochemical; settings: 100 μl of cluster (1 μMolar) with 20 μl of 0.1M KCN
Procedure: Two nmol of the Au13 [P(PhCONH(CH2)3 NH2)3 ]10 cluster in 0.1M sodium citrate buffer, pH 5, was incubated with the crosslinking reagent, N-hydroxysuccinimidyl-4-azidosalicylic acid (NHS-ASA). A range of amounts was tried, from 1 to 100-fold molar excess over the number of amines in the cluster. Incubation was carried out in the dark for 30 min. The solution was exposed to UV light (Ultraviolet Products Inc., Lamp R-52) at 4 cm for 5 min. The product was purified on a 0.66×50 cm column of GH-25 (Amicon) using the buffer 0.36M triethylammonium bicarbonate/70% methanol in water. Alternately, these last two steps were reversed so that unreacted crosslinker was removed on the column before UV treatment.
The crosslinked cluster stability was quantitated by observing the decrease in optical density at 346 and 420 nm in a spectrophotometer at regular intervals after adding KCN or glutathione. One hundred μl of cluster (1 μMolar) was mixed with 20 μl of 0.1M KCN. […] Noncrosslinked cluster was completely destroyed after 2 min under these conditions.
A longer photocrosslinking reagent was also used, sulfosuccinimidyl 6-(4'-azido-2'-nitrophenylamino) hexanoate (sulfo-SANPAH). The procedure was identical to that described above. For 100-fold initial excess of crosslinker, the resulting cluster product was 100% stable to KCN indefinitely, whereas uncrosslinked cluster was completely destroyed in 2 min.

[8] = Chemical stability of derivatized Au13 cluster
control melanoma = test: In vitro test of Fab'-Au11 with control melanoma, radiolabeled second antibody; assay type: cell-based; settings: preliminary in vitro testing, 17-1A
Procedure: (§1) The antibody used is "17-1A", commercially available from Centocor, Inc. These antibody-cluster conjugates were also assayed by electron microscopy, high pressure liquid chromatography, and spectroscopy and appeared to follow the normal course of results indicated in Examples 4 and 5. The number of gold clusters bound to each Fab' in this example was 0.7-1.0.
(§2) The in vitro test involved incubating the Fab'-Au11 with either colorectal carcinoma cells or a control melanoma for one hour, centrifugation to isolate the cell-bound antibody, and assay of the bound antibody with a second antibody [to F(ab')2 ] which was itself radiolabeled with iodine. A titer curve was produced.

human colon carcinoma = test: In vivo biodistribution of radiogold cluster 17-1A conjugates in nude mice bearing human tumors; settings: 24 hr after injection
Procedure: Nude mice bearing human colon carcinoma or melanoma tumors were injected with radioactive gold clusters conjugated to anti-tumor antibodies. Two antibodies were gold labeled, one (17-1A) against the human colon carcinoma and another non-relevant antibody, H2 4B5 anti-influenza. The non-relevant tumor (melanoma) and non-relevant gold conjugated antibody (H2 4B5) served as controls. A total of 53 mice were used. In order to assess the efficacy of using gold labeled Fab' versus whole IgG, both types of antibody were labeled and tested. In addition, two crosslinking arms between the gold cluster and antibody were used, one, as described in the preparation example, was N-methoxycarbonyl maleimide (NMCM), whereas the other was n-maleimidobenzoyl-N-hydroxysuccinimide ester (MBS), This was to test if a different covalent crosslinker between the gold cluster and antibody or antibody fragment yielded conjugates with different stabilities or body distributions in vivo.
In vivo biodistribution of radiogold cluster 17-1A conjugates. Data,
after injection is expressed in % of injected dose per gram of tissue.
Tumor to normal tissue ratios are given in parentheses. Three or four
sample were averaged; normalized to 25 g animals.

[9] = test system: colorectal carcinoma cells; test: In vitro test of Fab'-Au11 with colorectal carcinoma cells, radiolabeled second antibody; assay type: cell-based, human
Procedure: as §1, §2

melanoma cells (WM164) [10] = test: In vitro cell binding of 17-1A-Au11 conjugates, control melanoma (radioactivity of gold); settings: percent of applied radioactive gold bound after incubation and washing; average ± s.d. of 2 samples
Procedure: as §3, §4, §5

[11] = test system: human colon carcinoma cells (LS180); test: In vitro cell binding of 17-1A-Au11 conjugates, human colon carcinoma (radioactivity of gold)
Procedure: as §3, §4, §5

[12] = 24 hours, % counts per organ normalized to 25 gm mice

With “Au11 [P(C6 H4 CONHR)3 ]7^3+ where 20 R groups are CH3 and one is (CH2)3 N(CO2)(CH2)” the “death or unusual reaction during or following injection” value [1] was “no mice died or reacted unusually”, the “blood, % of the injected amount” value [2, 12] was 2.8% and the “bone, % of the injected amount” value [2, 12] was 2.5%. The “carcass, % of the injected amount” value [2, 12] was 13.7%, the “gut and feces, % of the injected amount” value [2, 12] was 3.3% and the “kidney, % of the injected amount” value [2, 12] was 5.1%. The “liver, % of the injected amount” value [2, 12] was 19.3%, the “spleen, % of the injected amount” value [2, 12] was 0.4% and the “stomach, % of the injected amount” value [2, 12] was 0.4%. For the same molecule, the clusters excreted ([2]; after 24 hours, tail vein) was 56%, the clusters excreted [3] was 44% and the “% bound to tumor cells (human colon carcinoma)” value [4] was 0.54 ± 0.04%. The “% bound to control cells (melanoma)” value (melanoma cells (WM164) [5]) was 0.51 ± 0.06% and the “stability at 100° C.” value [6] was “perfectly stable”.

For “Au13 [P(PhCONH(CH2)3 NH2)3 ]10 [derivatized Au13 cluster]”, the “time to complete destruction in KCN” value [7] was 2 min and the “stability upon addition of 1M KCN” value [8] was “degraded”.

B1: Fab'-Au11: 17-1A monoclonal antibody Fab' fragment covalently coupled to the undecagold cluster (radioactive gold in Tables 1 and 2) (conjugate, chains of the INN, looked up)
VH: QVQLQQSGAELVRPGTSVKVSCKASGYAFTNYLIEWVKQRPGQGLEWIGVINPGSGGTNYNEKFKGKATLTADKSSSTAYMQLSSLTSDDSAVYFCARDGPWFAYWGQGTLVTVSA
VL: NIVMTQSPKSMSMSVGERVTLTCKASENVVTYVSWYQQKPEQSPKLLIYGASNRYTGVPDRFTGSGSATDFTLTISSVQAEDLADYHCGQGYSYPYTFGGGTKLEIK
modifications: Fab' undecagold cluster label
For B1, the “binding to a control melanoma” value (control melanoma) was “does not bind to a control melanoma”, the “Tumor to normal tissue ratio, blood” value (human colon carcinoma) was 1.9 and the “Tumor to normal tissue ratio, bone” value (human colon carcinoma) was 6.6. For the same molecule, the “Tumor to normal tissue ratio, gut” value (human colon carcinoma) was 5, the “Tumor to normal tissue ratio, heart” value (human colon carcinoma) was 3.7 and the “Tumor to normal tissue ratio, kidneys” value (human colon carcinoma) was 0.06. For the same molecule, the “Tumor to normal tissue ratio, liver” value (human colon carcinoma) was 1.0, the “Tumor to normal tissue ratio, lung” value (human colon carcinoma) was 2.5 and the “Tumor to normal tissue ratio, muscle” value (human colon carcinoma) was 13.2. For the same molecule, the “Tumor to normal tissue ratio, spleen” value (human colon carcinoma) was 2.3, the “Tumor to normal tissue ratio, stomach” value (human colon carcinoma) was 11.2 and the “blood, % of injected dose per gram of tissue” value (human colon carcinoma; normalized to 25 g animals) was 3.4 ± 0.3 % of injected dose per gram of tissue. For the same molecule, the “bone, % of injected dose per gram of tissue” value (human colon carcinoma; normalized to 25 g animals) was 0.97 ± 0.02 % of injected dose per gram of tissue, the “gut, % of injected dose per gram of tissue” value (human colon carcinoma; normalized to 25 g animals) was 1.3 ± 0.1 % of injected dose per gram of tissue and the “heart, % of injected dose per gram of tissue” value (human colon carcinoma; normalized to 25 g animals) was 1.7 ± 0.1 % of injected dose per gram of tissue. The “kidneys, % of injected dose per gram of tissue” value (human colon carcinoma; normalized to 25 g animals) was 103.0 ± 32 % of injected dose per gram of tissue, the “liver, % of injected dose per gram of tissue” value (human colon carcinoma; normalized to 25 g animals) was 5.6 ± 0.5 % of injected dose per gram of tissue and the “lung, % of injected dose per gram of tissue” value (human colon carcinoma; normalized to 25 g animals) was 2.5 ± 0.04 % of injected dose per gram of tissue. For the same molecule, the “muscle, % of injected dose per gram of tissue” value (human colon carcinoma; normalized to 25 g animals) was 0.48 ± 0.06 % of injected dose per gram of tissue, the “spleen, % of injected dose per gram of tissue” value (human colon carcinoma; normalized to 25 g animals) was 2.8 ± 0.4 % of injected dose per gram of tissue and the “stomach, % of injected dose per gram of tissue” value (human colon carcinoma; normalized to 25 g animals) was 0.57 ± 0.14 % of injected dose per gram of tissue. For the same molecule, the “tumor, % of injected dose per gram of tissue” value (human colon carcinoma; normalized to 25 g animals) was 6.4 ± 1.1 % of injected dose per gram of tissue, the “antibody activity and specificity” value ([9]; one hour incubation, titer curve) was “antibody activity and specificity were preserved” and the “specificity for the tumor” value ([9]; preliminary in vitro testing, 17-1A) was “retains its specificity for the tumor”. For the same molecule, the “% bound to control cells (melanoma)” value (melanoma cells (WM164) [10]) was 1.92 ± 0.17%, the “localization of radioactive gold on tumor cells” value ([11]; LS180 cells, in words) was “localized completely on the tumor cells” and the “% bound to tumor cells (human colon carcinoma)” value ([11]; percent of applied radioactive gold bound after incubation and washing, average ± s.d. of 2 samples) was 7.80 ± 0.52%.

— patent US5360895A, “Derivatized gold clusters and antibody-gold cluster conjugates” (priority 1992, dated 1994)
